B1: OR4K15 (parent)
chain: GUUAACGGUCAUAGGCCAUGGAAACUAGGAGCACCAUUUCGCUGCCAGUGAAGAAAUGAACAAAGAAAAUCUGGGCCAGGCAGGCAUCAAAAGAAAUAGUCUUGCGCUCAACCAGAAAGUCUGUAAUCAUUUUAAGGGUA

Variants of: B1
Experiment: self-cleavage, relative activity (ratio to wild type); higher = more cleavage; in vitro, sequencing; the parent is a self-cleaving ribozyme

Row | Variant | self-cleavage
1 | GUUAACGGUCAUAGGCCAUGGAAACUAGGAGCACCAGUUCGCUGCCAGUGAAGAAAUGAACAAAGAAAAUCUGGGCCAGGCAGGCAUCAAAAGAAAUAGUCUUGCGCUCAACCAGAAAGUCUGUAAUCACUUUAAGGGUA | 0.05
2 | GUUAACGGUCAUAGGCCAUGGAAACUAGGAGCACCAUUUCGCUGCCAGCGGAGAAAUGAACAAAGAAAAUCUGGGCCAGGCAGGCAUCAAAAGAAAUAGUCUUGCGCUCAACCAGAAAGUCUGUAAUCAUUUUAAGGGUA | 0.9
3 | GUUAACGGUCAUAGGCCAUGGAAACUAGGAGCACCAUUUCGCUGCCAGUGAAGAAAUGAACUAAGAAAAUCUGGGCCAGGCAGGCAUCAAAAGAAAUAGUCUUGCGCUCAACCAGAAAGUCUGUAAUCAUUAUAAGGGUA | 2.19
4 | GUUAACGGUCAUAGGCCAUGGAAACUAGGAGCACCAUUUCGCUGCCAGUGAAGAAAUGAACAAAGAAAAUCUGGGCCAGGCAGGCAUCAAAAGAAAUGGUCUUGCGCUCAACCAGAAAGCCUGUAAUCAUUUUAAGGGUA | 0.23
5 | GUUAACGGUCAUAGGCCAUGGAAACUAGGAGCACCAUUUCGCUGCCAGUGAAGAAAUGAACAAAGAAAAUCUGGGCCAGGCUGGCAUCAAAAGAAAUAGUCUUGCGCUCAACCAGAAAGUCUGUAAUCGUUUUAAGGGUA | 0.08
6 | GUUAACGGUCAUAGGCCAUGGAAACUAGGAGCACCAUUUCGCUGCCAGUGAAGAAAUGAACAAAGAAAAUCUGGACUAGGCAGGCAUCAAAAGAAAUAGUCUUGCGCUCAACCAGAAAGUCUGUAAUCAUUUUAAGGGUA | 0.11
7 | GUUAACGGUCAUAGGCCAUGGAAACUAGGAGCACCAUUUCGCUGCCAGUGAAGAAAUGAACAAAGAAAAUCUGGGCCGGGCAGGCAACAAAAGAAAUAGUCUUGCGCUCAACCAGAAAGUCUGUAAUCAUUUUAAGGGUA | 0.08
8 | GUUAACGGUCAUAGGCCAUGGAAACUAGGAGCACCAUUUCGCUACCGGUGAAGAAAUGAACAAAGAAAAUCUGGGCCAGGCAGGCAUCAAAAGAAAUAGUCUUGCGCUCAACCAGAAAGUCUGUAAUCAUUUUAAGGGUA | 1.27
9 | GUUAACGGUCAUAGGCCAUGGAAACUAGGAGCACCAUUUCUCUGCCAGUGAAGAAAUGAGCAAAGAAAAUCUGGGCCAGGCAGGCAUCAAAAGAAAUAGUCUUGCGCUCAACCAGAAAGUCUGUAAUCAUUUUAAGGGUA | 1.9
10 | GUUAACGGUCAUAGGCCAUGGAAACUAGGAGCACCAUUUCGCUGCCAGUGAAGGAAUGAACAAAGAAAAUCUGGGCCAGGCAGGCAUCAAAAGAAAUAGUCUUGCGCUCAACCAGAAAGUCUGUAAUCAUUUUAGGGGUA | 1.13
11 | GUUAACGGUCAUAGGCCAUGGAAACUAGGAGCACCAUUUCGCUGCCAGUGAAGAAAUGAACAAAGAAAAUCUGGGCCAGGCAGGCAUCAAAAGAAAUAGUCUUGCGCUCAACCAGAAAGACUGUAAUCAAUUUAAGGGUA | 0.54
12 | GUUAACGGUCAUAGGCCAUGGAAACUAGGGGCACCAUUUCGCUGCCAGUGAAGAAACGAACAAAGAAAAUCUGGGCCAGGCAGGCAUCAAAAGAAAUAGUCUUGCGCUCAACCAGAAAGUCUGUAAUCAUUUUAAGGGUA | 1.29
13 | GUUAACGGUCAUAGGCCAUGGAAACUAGGAGCACCAUUUCGCUACCAGUGAAGAAAUGAACAAAGAAAAUCUGGGCCAGGCAGGCAUCAAAAGAAAUAGUCAUGCGCUCAACCAGAAAGUCUGUAAUCAUUUUAAGGGUA | 1.56
14 | GUUAACGGCCAUAGGCCAUGGAUACUAGGAGCACCAUUUCGCUGCCAGUGAAGAAAUGAACAAAGAAAAUCUGGGCCAGGCAGGCAUCAAAAGAAAUAGUCUUGCGCUCAACCAGAAAGUCUGUAAUCAUUUUAAGGGUA | 1.07
15 | GUUAACGGUCAUAGGCCAUGGAAACUAGGAGCACCAUUUCGCUGCCAGUGAAGAAAUGAACAAAGAAAAUCAGGGCCAGGCAGGCAUCAAAAGAAAUAGUCUUGCGCUCAACCAGAGAGUCUGUAAUCAUUUUAAGGGUA | 0.16
16 | GUUAACUGUCAUAGGCCUUGGAAACUAGGAGCACCAUUUCGCUGCCAGUGAAGAAAUGAACAAAGAAAAUCUGGGCCAGGCAGGCAUCAAAAGAAAUAGUCUUGCGCUCAACCAGAAAGUCUGUAAUCAUUUUAAGGGUA | 0.43
17 | GUUAACGGUCAUAGGCCAUGGAAACUAGGAGCACCAUUUCGCUGCCAGUGAAGAAAUGAACGAAGAAAAUCUGGGCCAGGCAGGCAUCAAAAGAAAUAGUCUUGCGCUCAAUCAGAAAGUCUGUAAUCAUUUUAAGGGUA | 0.01
18 | GUUAACGGUCAUAGGCCAUGGAAACUAGGAGCACCAUUUCGCUGCCAGUGAAGAAAUGAACAAAGAAAAUCUGGGCCAGGCAGGCAUCAAAAGAAAUAGUCUUGCGCUCAACCUGAGAGUCUGUAAUCAUUUUAAGGGUA | 0.04
19 | GUUAACGGUCACAGGCCAUGGAAACUAGGAGCACCAUUUCGCUGCCAGUGAAGAAAUGAACAAAGAAAAUCUGGGCCAGGCAGGCAUCGAAAGAAAUAGUCUUGCGCUCAACCAGAAAGUCUGUAAUCAUUUUAAGGGUA | 1.35
20 | GUUAACGGUCAUAGGCCAUGGAAACUAGGAGCACCAUUUCGCUGCCAGUGAAGAAAUGAACAAAGAAAAUCUGGGCCAGGCAGGCAUCAAAAGAAAUAGUCUUGCGCUCAACCGGAAAGUCUGUAAUCAUUCUAAGGGUA | 0.24

Source: the RNAGym collection of RNA variant scans (doi:10.7554/elife.90254)
